# Patent publication EP4763862A1 (Beijing Tide Pharmaceutical Co., Ltd., dated 2026)
# T1: B7-H3 on NCI-H446 cells (UniProt Q5ZPR3 29-534)
# T1 construct: whole, on cells
# T1 sequence (looked up): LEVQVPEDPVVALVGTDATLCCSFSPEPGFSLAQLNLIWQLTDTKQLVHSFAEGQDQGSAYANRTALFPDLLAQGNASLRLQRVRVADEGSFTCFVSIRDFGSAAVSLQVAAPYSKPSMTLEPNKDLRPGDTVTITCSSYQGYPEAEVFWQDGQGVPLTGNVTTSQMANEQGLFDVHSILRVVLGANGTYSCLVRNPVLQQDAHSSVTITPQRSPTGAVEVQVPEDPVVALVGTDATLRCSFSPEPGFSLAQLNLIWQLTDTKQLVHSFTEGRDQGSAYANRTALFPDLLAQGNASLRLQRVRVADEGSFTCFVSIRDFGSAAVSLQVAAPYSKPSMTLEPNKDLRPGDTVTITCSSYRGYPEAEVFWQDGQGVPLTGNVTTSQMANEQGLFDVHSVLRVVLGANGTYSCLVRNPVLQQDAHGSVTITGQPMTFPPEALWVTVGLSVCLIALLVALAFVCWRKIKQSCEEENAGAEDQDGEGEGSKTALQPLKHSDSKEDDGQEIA
# Assays:
# B7-H3 on NCI-H446 cells = target: T1, B7-H3 on NCI-H446 cells; test: flow cytometry on NCI-H446 cells, goat anti-human Fc secondary
# B7-H3 Cyno-His = target: T2, B7-H3 Cyno-His (cynomolgus monkey); test: SPR, Biacore 8K, antibody captured by anti-human IgG Fc on CM5, B7-H3 Cyno-His as analyte, 1:1 model
# T2 construct: also called cynomolgus monkey B7-H3
Binder,EC50 (B7-H3 on NCI-H446 cells) [nM],also measured
"cAb2-z2-p6 (antibody, human IgG1, kappa, V domains shown, Humanized from 28-B1-E8-C11; Human IgG1 / kappa) VH: QVQLVESGAVVKKPGASVKVSCKASGYTLSDFNMDWVRQAPGKSLEWMGDINPNYDTITYNQKFRGRVTLTVDRSINTAYMELSRLRSDDTAVYYCARGELGRYFYVWGAGTMVTVSS VL: DIQLTQPPSSLSASVGDRVTITCRASENVYSYLAWYQQKPGRSPQLLVYNAKTLQEGVPSRFSGSGSGTQFTLTISSLQPEDFADYYCQHHYGTPWTFGGGTKVEIKR",1.36,
"cAb2-z3-p6 (antibody, human IgG1, kappa, V domains shown, Humanized from 28-B1-E8-C11; Human IgG1 / kappa) VH: QVQLVESGAVVKKPGASVKVSCKASGYTLSDFNMDWVRQAPGKSLEWMGDINPNYDTITYNQKFRGRVTLTVDRSINTAYMELSRLRSDDTAVYYCARGELGRYFYVWGAGTMVTVSS VL: DIQLTQPPSFLSASVGDRVTITCRASENVYSYLAWYQQKPGRSPQLLVYNAKTLQEGVPSRFSGSGSGTEFTLTISSLQPEDFADYYCQHHYGTPWTFGGGTKVEIKR",1.06,
"cAb2-z5-p6 (antibody, human IgG1, kappa, V domains shown, Humanized from 28-B1-E8-C11; Human IgG1 / kappa) VH: QVQLVESGAVVKKPGASVKVSCKASGYTLSDFNMDWVRQAPGKSLEWMGDINPNYDTITYNQKFRGRVTLTVDRSINTAYMELSRLRSDDTAVYYCARGELGRYFYVWGAGTMVTVSS VL: DIQLTQPPSSLSASVGDRVTITCRASENVYSYLAWYQQKPGRSPQLLVYNAKTLPEGVPSRFSGSGSGTQFTLTISSLQPEDFADYYCSHHYGTPWTFGGGTKVEIKR",3.92,
"cAb2-z4-p6 (antibody, human IgG1, kappa, V domains shown, Humanized from 28-B1-E8-C11; Human IgG1 / kappa) VH: QVQLVESGAVVKKPGASVKVSCKASGYTLSDFNMDWVRQAPGKSLEWMGDINPNYDTITYNQKFRGRVTLTVDRSINTAYMELSRLRSDDTAVYYCARGELGRYFYVWGAGTMVTVSS VL: DIQLTQPPSSLSASVGDRVTITCRASENVYSYLAWYQQKPGRSPQLLVYNAKTLQEGVPSRFSGSGSGTQFTLTISSLQPEDVADYYCQHHYGTPWTFGGGTKVEIKR",0.552,
"cAb1-uIgG1K (antibody, Parental chimeric antibody of the cAb1 series; also called cAb1-ulgG1K) heavy: not shown light: DVLMTQTPLSLPVSLGDQVSISCRASQSLANSYGKTYLSWYLHKPGQSPQLLIYGISNRFSGVPDRFSGSGSGTDFTLKISTIKPEDLGMYYCLHGTHQPLTFGAGTKLELKRTVAAPSVFIFPPSDEQLKSGTASVVCLLNNFYPREAKVQWKVDNALQSGNSQESVTEQDSKDSTYSLSSTLTLSKADYEKHKVYACEVTHQGLSSPVTKSFNRGEC",3.45,Kd (B7-H3 Cyno-His): 3.35 nM; koff (B7-H3 Cyno-His): 5.47e-05 s⁻¹; kon (B7-H3 Cyno-His): 16300 M⁻¹ s⁻¹
"28-B1-E8-C11 (antibody, human IgG1, kappa, V domains shown, parent of the cAb2 humanized antibodies; also called CC11) VH: EVKLVESGAVLVKPGASVKISCKASGYTLSDFNMDWVKQSQGKSLEWVGDINPNYDTITYNQKFRGKATLTVDRSSNTAYMELRSLTSEDSAVYYCARGELGRYFYVWGAGTTVTVSS VL: DIQLTQPPASLSASVGETVTITCRASENVYSYLAWYRQKQGRSPQLLVYNAKTLPEGVPSRFSGSGSGTQFSLKINSLQTEDLGDYYCQHHYGTPWTFGGGTKLEIKR",4.45,
"cAb2-z0-p9 (antibody, human IgG1, kappa, V domains shown, Humanized from 28-B1-E8-C11; Human IgG1 / kappa) VH: EVKLVESGAVLVKPGASVKISCKASGYTLSDFNMDWVKQSQGKSLEWVGDINPNYDTITYNQKFRGKATLTVDRSSNTAYMELRSLTSEDSAVYYCARGELGRYFYVWGAGTTVTVSS VL: DIQLTQPPSSLSASVGDRVTITCRASENVYSYLAWYQQKPGRSPQLLVYNAKTLQEGVPSRFSGSGSGTQFTLTISSLQPEDVADYYCQHHYGTPWTFGGGTKVEIKR",1.15,
"cAb2-z1-p9 (antibody, human IgG1, kappa, V domains shown, Humanized from 28-B1-E8-C11; Human IgG1 / kappa; also called cAb2-zl-p9) VH: EVKLVESGAVLVKPGASVKISCKASGYTLSDFNMDWVKQSQGKSLEWVGDINPNYDTITYNQKFRGKATLTVDRSSNTAYMELRSLTSEDSAVYYCARGELGRYFYVWGAGTTVTVSS VL: DIQLTQPPSSLSASVGDRVTITCRASENVYSYLAWYQQKPGRSPQLLVYNAKTLPEGVPSRFSGSGSGTQFTLTISSLQPEDFADYYCSHHYGTPWTFGGGTKVEIKR",2.22,
